Changes are numbered by the printed parent chain. Each block holds one molecule with its values, some of them ahead of it.
Target: T1, pKal (Homo sapiens, UniProt P03952)
T1 construct: two disulfide linked polypeptides; a heavy chain of approximately 52 kDa and a catalytic domain of approximately 34 kDa; host or cells: human plasma
Assay: Fab fragments (small scale) tested for inhibition against human pKal in an in vitro protease cleavage assay
Type: biochemical
Conditions: Table 9
Description: By DNA sequencing, we recovered 61 of the possible 80 antibodies (Table 9). These antibodies were produced as Fab fragments in small scale (˜20 μg) and tested for inhibition against human pKal in an in vitro protease cleavage assay using Pro-Phe-Arg-aminomethylcoumarin as the synthetic peptide substrate. […] Five antibodies were then expressed in 293T cells and purified by protein A sepharose chromatography. The antibodies were analyzed by SDS-PAGE to determine which of the inhibitory mutants are not cleaved by the host cell protease(s) (data not shown).

T1 sequence (P03952 391-638 limits assumed): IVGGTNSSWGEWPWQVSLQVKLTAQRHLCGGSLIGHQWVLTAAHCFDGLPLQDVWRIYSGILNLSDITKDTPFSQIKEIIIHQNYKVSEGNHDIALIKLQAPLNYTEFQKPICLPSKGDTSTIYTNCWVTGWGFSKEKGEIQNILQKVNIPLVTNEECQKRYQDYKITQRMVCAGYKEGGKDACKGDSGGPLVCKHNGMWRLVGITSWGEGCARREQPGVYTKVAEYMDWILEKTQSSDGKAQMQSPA
T1 sequence (P03952 20-390 partner limits assumed): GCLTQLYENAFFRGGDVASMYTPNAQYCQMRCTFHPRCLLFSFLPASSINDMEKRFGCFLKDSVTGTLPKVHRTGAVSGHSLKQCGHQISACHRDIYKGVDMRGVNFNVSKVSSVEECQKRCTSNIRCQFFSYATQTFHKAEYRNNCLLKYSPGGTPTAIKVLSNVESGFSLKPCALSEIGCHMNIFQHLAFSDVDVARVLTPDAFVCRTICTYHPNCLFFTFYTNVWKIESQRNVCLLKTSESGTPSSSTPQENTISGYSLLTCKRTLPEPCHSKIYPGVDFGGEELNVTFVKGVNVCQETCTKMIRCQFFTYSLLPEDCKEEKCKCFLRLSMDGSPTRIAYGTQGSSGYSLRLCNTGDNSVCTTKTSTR

B2: X66-E04: single point mutation of M142-H08 (P1); HV-CDR3 GGLLLWFQELKSNYFDY (antibody, V domains shown)
VL: QDIQMTQSPSSLSAFVGDRVTITCRASQPIDNYLNWYHQKPGKAPKLLIYAASRLQSGVPSRLSGSGFGTDFTLTISSLQPEDFGNYYCQQSYTVPYTFGGGTKVEIR
VH: EVQLLESGGGLVQPGGSLRLSCAASGFTFSAYSMIWVRQAPGKGLEWVSYIRPSGGRTTYADSVKGRFTISRDNSKNTLYLQMNSLRAEDTAVYYCARGGLLLWFQELKSNYFDYWGQGTLVTVSSASTKGPSVFPLAPSSKS
Inhibit as a Fab?: No

B4: X66-F01: single point mutation of M142-H08 (P1); HV-CDR3 GGLLLWFSELKSNYFDY (antibody, V domains shown)
VL: B2 VL
VH: B2 VH with Q106S
Inhibit as a Fab?: No

B6: X66-F10: single point mutation of M142-H08 (P1); HV-CDR3 GGLLLWFPELKSNYFDY (antibody, V domains shown)
VL: B2 VL
VH: B2 VH with Q106P
Inhibit as a Fab?: No

B10: X66-C02: single point mutation of M142-H08 (P1); HV-CDR3 GGLLLWFVELKSNYFDY (antibody, V domains shown)
VL: B2 VL
VH: B2 VH with Q106V
Inhibit as a Fab?: No

B11: X66-G05: single point mutation of M142-H08 (P1); HV-CDR3 GGLLLWFMELKSNYFDY (antibody, V domains shown)
VL: B2 VL
VH: B2 VH with Q106M
Inhibit as a Fab?: No

B12: X66-C03: single point mutation of M142-H08 (P1); HV-CDR3 GGLLLWFLELKSNYFDY (antibody, V domains shown)
VL: B2 VL
VH: B2 VH with Q106L
Inhibit as a Fab?: No

B15: X66-A07: single point mutation of M142-H08 (P1); HV-CDR3 GGLLLWFKELKSNYFDY (antibody, V domains shown)
VL: B2 VL
VH: B2 VH with Q106K
Inhibit as a Fab?: No

B17: X66-B05: single point mutation of M142-H08 (P1); HV-CDR3 GGLLLWFCELKSNYFDY (antibody, V domains shown)
VL: B2 VL
VH: B2 VH with Q106C
Inhibit as a Fab?: No

B19: X66-F09: single point mutation of M142-H08 (P1); HV-CDR3 GGLLLWFWELKSNYFDY (antibody, V domains shown)
VL: B2 VL
VH: B2 VH with Q106W
Inhibit as a Fab?: No

B20: X66-C11: single point mutation of M142-H08 (P1); HV-CDR3 GGLLLWFHELKSNYFDY (antibody, V domains shown)
VL: B2 VL
VH: B2 VH with Q106H
Inhibit as a Fab?: No

B23: X66-E09: single point mutation of M142-H08 (P1); HV-CDR3 GGLLLWFAELKSNYFDY (antibody, V domains shown)
VL: B2 VL
VH: B2 VH with Q106A
Inhibit as a Fab?: No

B26: X66-D03: single point mutation of M142-H08 (P1); HV-CDR3 GGLLLWFEELKSNYFDY (antibody, V domains shown)
VL: B2 VL
VH: B2 VH with Q106E
Inhibit as a Fab?: No

Now from value to molecule:

Inhibit as a Fab?: No
B1: X67-G01: single point mutation of M142-H08 (P2); HV-CDR3 GGLLLWCRELKSNYFDY (antibody, V domains shown)
VL: B2 VL
VH: B2 VH with F105C, Q106R

Inhibit as a Fab?: Yes
B3: X67-F10: single point mutation of M142-H08 (P2); HV-CDR3 GGLLLWTRELKSNYFDY (antibody, V domains shown)
VL: B2 VL
VH: B2 VH with F105T, Q106R

Inhibit as a Fab?: Yes
B5: X67-G09: single point mutation of M142-H08 (P2); HV-CDR3 GGLLLWLRELKSNYFDY (antibody, V domains shown)
VL: B2 VL
VH: B2 VH with F105L, Q106R

Inhibit as a Fab?: Yes
B7: X67-C09: single point mutation of M142-H08 (P2); HV-CDR3 GGLLLWGRELKSNYFDY (antibody, V domains shown)
VL: B2 VL
VH: B2 VH with F105G, Q106R

Inhibit as a Fab?: No
B8: X66-H04: single point mutation of M142-H08 (P1); HV-CDR3 GGLLLWFFELKSNYFDY (antibody, V domains shown)
VL: B2 VL
VH: B2 VH with Q106F

Inhibit as a Fab?: No
B9: X66-H11: single point mutation of M142-H08 (P1); HV-CDR3 GGLLLWFTELKSNYFDY (antibody, V domains shown)
VL: B2 VL
VH: B2 VH with Q106T

Inhibit as a Fab?: Yes
B13: X67-E04: single point mutation of M142-H08 (P2); HV-CDR3 GGLLLWDRELKSNYFDY (antibody, V domains shown)
VL: B2 VL
VH: B2 VH with F105D, Q106R

Inhibit as a Fab?: No
B14: X67-B05: single point mutation of M142-H08 (P2); HV-CDR3 GGLLLWPRELKSNYFDY (antibody, V domains shown)
VL: B2 VL
VH: B2 VH with F105P, Q106R

Inhibit as a Fab?: Yes
B16: X67-F08: single point mutation of M142-H08 (P2); HV-CDR3 GGLLLWYRELKSNYFDY (antibody, V domains shown)
VL: B2 VL
VH: B2 VH with F105Y, Q106R

Inhibit as a Fab?: Yes
B18: X67-H01: single point mutation of M142-H08 (P2); HV-CDR3 GGLLLWWRELKSNYFDY (antibody, V domains shown)
VL: B2 VL
VH: B2 VH with F105W, Q106R

Inhibit as a Fab?: Yes
B21: X67-H04: single point mutation of M142-H08 (P2); HV-CDR3 GGLLLWERELKSNYFDY (antibody, V domains shown)
VL: B2 VL
VH: B2 VH with F105E, Q106R

Inhibit as a Fab?: Yes
B22: X67-B04: single point mutation of M142-H08 (P2); HV-CDR3 GGLLLWKRELKSNYFDY (antibody, V domains shown)
VL: B2 VL
VH: B2 VH with F105K, Q106R

Inhibit as a Fab?: No
B24: X66-H02: single point mutation of M142-H08 (P1); HV-CDR3 GGLLLWFGELKSNYFDY (antibody, V domains shown)
VL: B2 VL
VH: B2 VH with Q106G

Inhibit as a Fab?: Yes
B25: X67-G05: single point mutation of M142-H08 (P2); HV-CDR3 GGLLLWRRELKSNYFDY (antibody, V domains shown)
VL: B2 VL
VH: B2 VH with F105R, Q106R

Inhibit as a Fab?: Yes
B27: X67-B03: single point mutation of M142-H08 (P2); HV-CDR3 GGLLLWSRELKSNYFDY (antibody, V domains shown)
VL: B2 VL
VH: B2 VH with F105S, Q106R
